Drawing on the RNAGym collection of RNA variant scans (doi:10.1093/nar/gkz1192), this text covers self-cleavage for 167 variants.

B1: CPEB3 Ribozyme (parent)
chain: UAACAGGGGGCCACAGCAGAAGCGUUCACGUCGCAGCCCCUGUCAGAUUCUGGUGAAUCUGCGAAUUCUGCUGUAUAUCUC

The data set covers variants of B1. Put plainly: self-cleavage, relative activity (ratio to wild type); higher = more cleavage; in vitro, sequencing. An outline of the steps: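 Relative activity was defined as the cleaved/total read fraction for a variant divided by the same fraction for the unmutated ribozyme. CPEB3 self-cleaving ribozyme libraries were made by rounds of error-prone PCR, barcoded, and transcribed in vitro with T7 RNA polymerase for 5 hours at 37°C, and cleavage ran through transcription plus a 15 min DNase I step before EDTA. Illumina sequencing of template-switched reverse transcripts gave the reads, and DNA sequencing mapped the barcodes. Averages come from three batches, using variants with at least 5 reads.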
Consider C14A G42A, for which the self-cleavage came to 0.09.

Turning to A13U C38U, the self-cleavage came out at 0.89. The result for A13U C38A reads 0.12; that for A13U C38G, 0.41; that for A13U A35G, 1.3. Turning to A13U A35U, the self-cleavage stood at 0.75. For A13U A35C, the self-cleavage amounted to 0.69. With C14A A56G the figure was 1.1.

Turning to C14A U51A, the self-cleavage was found to be 1.1. For the variant C14A U51C, the self-cleavage is 1.04. The result for C14A A65G reads 0.78; that for C14A C17G, 0.44. With C14A G24C the figure was 0.15; with C14A A28U, 0.76. The result for C14A U54A reads 1.19; that for C14A U54G, 1.21. In the case of A13U U78C, the self-cleavage turned out to be 1.23. The result for A13U U78A reads 1.21; that for A13U C71A, 0.33; that for A13U G53A, 1.27.

Take C14A U66C: the self-cleavage was determined as 0.4. For the variant A13U C59A, the self-cleavage is 0.58. The result for A13U G30A reads 0.24; that for A13U G30U, 0.11.

Regarding A13U A65C, the self-cleavage was determined as 0.17.

For A13U A65G, the self-cleavage worked out at 0.61. C14A U41C: the self-cleavage was determined as 1.22. The result for A13U U31A reads 0.61. With A13U U31G the figure was 0.66; with A13U U31C, 1.01. Consider A13U C32A, for which the self-cleavage amounted to 0.2. Regarding A13U C32U, the self-cleavage is 0.25.

On to A13U C32G, for which the self-cleavage stood at 0.45.

On to A13U C34U, for which the self-cleavage was 0.43.

For C14A U60C, the self-cleavage stood at 0.29. On to C14A U25C, for which the self-cleavage was 0.21. As to C14A G53A, the self-cleavage came out at 1.38. For the variant A13U C39A, the self-cleavage was 0.15. Turning to A13U C39G, the self-cleavage worked out at 0.51. With A13U C39U, the self-cleavage amounted to 1.18. With C14A U26C the figure was 0.63; with A13U G61A, 0.91. With C14A A18U the figure was 0.49; with A13U G63A, 1.05; with A13U G63U, 1.09. With C14A A75U the figure was 1.23. A13U C23U: the self-cleavage was determined as 0.15. Consider A13U C23G, for which the self-cleavage came out at 0.17. With A13U C23A, the self-cleavage worked out at 0.33. On to A13U U60A, for which the self-cleavage came out at 0.73. For the variant A13U U60C, the self-cleavage was determined as 0.64. The result for A13U U25C reads 0.28. Regarding A13U U25A, the self-cleavage was determined as 0.26. With A13U C29U the figure was 0.58; with A13U C62U, 0.22. With A13U A47U, the self-cleavage stood at 0.92. The result for A13U A47G reads 1.01; that for A13U A47C, 0.76.

Consider A13U G16U, for which the self-cleavage amounted to 0.47. With C14A A35U the figure was 0.4; with C14A A35G, 1.26; with A13U C50A, 0.98. The result for A13U C50U reads 0.89; that for A13U G70C, 0.21. With A13U G70A the figure was 0.48; with A13U G22U, 0.34. A13U G22C: the self-cleavage was 0.19. For the variant A13U C81U, the self-cleavage worked out at 1.2. The result for A13U G42A reads 0.19. In the case of A13U G42U, the self-cleavage was determined as 0.12. With A13U U58G the figure was 0.3; with A13U U58A, 0.44. Take A13U U58C: the self-cleavage stood at 0.72.

As for C14A A21U, the self-cleavage was 0.34. With A13U G24A the figure was 0.26; with C14A, 1.17. With C14A U49C the figure was 0.23; with A13U A57U, 1.04; with A13U A57G, 1.07. With A13U A57C the figure was 0.7; with A13U A64U, 0.47; with A13U A64C, 0.27.

For A13U A64G, the self-cleavage was 1.09.

Regarding A13U U69A, the self-cleavage stood at 0.74.

Regarding A13U U69C, the self-cleavage turned out to be 0.71.

Take A13U U69G: the self-cleavage amounted to 0.85.

As for C14A G73U, the self-cleavage was found to be 1.26. With A13U G33U the figure was 0.11; with A13U G33A, 0.21; with A13U G33C, 0.2. Turning to A13U C44U, the self-cleavage is 0.23. With A13U C44A the figure was 0.29; with A13U C14U, 1.26; with A13U U41A, 0.26.

On to A13U U41C, for which the self-cleavage was found to be 1.2. With C14A A15G the figure was 1.1; with A13U A75U, 1.28. Regarding A13U A75G, the self-cleavage was determined as 1.25. With A13U A56G the figure was 1.07. The result for A13U A56U reads 0.93. With A13U U43C the figure was 0.93; with A13U U43G, 0.26; with A13U U43A, 1.09. In the case of A13U C37U, the self-cleavage came out at 1.09. The result for A13U U76C reads 1.17; that for A13U U76A, 1.11; that for C14A C38G, 0.19. In the case of A13U U74C, the self-cleavage came out at 1.28. With A13U U74A the figure was 1.23; with C14A C32A, 0.2.

As to C14A C32U, the self-cleavage was 0.21. With A13U U48A the figure was 0.56. As for A13U U48C, the self-cleavage came out at 0.77. The result for C14A A45G reads 1.15.

Take C14A A45U: the self-cleavage was determined as 0.77.

Consider C14A U43C, for which the self-cleavage amounted to 0.83.

For C14A U43A, the self-cleavage is 1.24. The result for A13U G52A reads 1.22; that for A13U G52C, 1.24. As for A13U U67A, the self-cleavage amounted to 0.7. The result for A13U U67C reads 0.3; that for A13U C79U, 1.31; that for A13U C79A, 1.28. With A13U A77G the figure was 1.03; with A13U A77U, 1.22; with A13U U26A, 1.08.

On to A13U U26G, for which the self-cleavage came to 0.4. With A13U U26C the figure was 0.64. As for A13U G19A, the self-cleavage came to 0.17. As to A13U G73U, the self-cleavage came out at 1.24.

Regarding A13U G73C, the self-cleavage was found to be 1.26. Regarding A13U G73A, the self-cleavage is 1.23.

For A13U C40U, the self-cleavage worked out at 1.25.

In the case of C14A A20G, the self-cleavage came to 0.96. In the case of A13U G55U, the self-cleavage is 0.83. As for A13U C27U, the self-cleavage was 0.24.

As to A13U C27A, the self-cleavage was found to be 0.17. With C14A G70U, the self-cleavage is 0.22. With A13U C68A the figure was 0.54; with A13U C68U, 1.21; with A13U U54G, 1.01. In the case of A13U U54C, the self-cleavage is 1.1. For the variant A13U U54A, the self-cleavage is 1.18.

With C14A A57U, the self-cleavage stood at 1.14.

Regarding A13U C17G, the self-cleavage was determined as 0.48.

As to A13U C17U, the self-cleavage is 0.92. The result for A13U G36A reads 0.33; that for C14A G19A, 0.29.

For the variant A13U U49A, the self-cleavage is 0.71.

As for A13U U49C, the self-cleavage amounted to 0.31.

As for A13U U80G, the self-cleavage was determined as 1.27.

In the case of A13U U80C, the self-cleavage was 1.18. As to A13U U80A, the self-cleavage was found to be 1.25.

Consider A13U A45G, for which the self-cleavage was 1.1.

With A13U A45C, the self-cleavage is 0.38.

On to A13U A45U, for which the self-cleavage was determined as 0.69. With A13U U66C the figure was 0.48.

For the variant A13U U66A, the self-cleavage is 0.52. With A13U U66G, the self-cleavage turned out to be 0.81.

With A13U U51C, the self-cleavage was determined as 0.94.

As to A13U U51A, the self-cleavage turned out to be 1.21. For A13U U51G, the self-cleavage is 1.27. The result for C14A G63U reads 1.14; that for C14A G63A, 0.93; that for A13U U72G, 0.76.

With A13U U72C, the self-cleavage came to 0.96. Consider A13U U72A, for which the self-cleavage amounted to 0.77.
